Measured values: publication PMC8899846

B1: wt mouse RtcB-Flag (pCMV3-mRTCB-Flag) [mouse] / PTP1B-C215S (trapping mutant; pcDNA3.1/Zeo-PTP1B [not stated] (parent)
chain 1: MSRNYNDELQFLDKINKNCWRIKKGFVPNMQVEGVFYVNDALEKLMFEELRNACRGGGVGGFLPAMKQIGNVAALPGIVHRSIGLPDVHSGYGFAIGNMAAFDMNDPEAVVSPGGVGFDINCGVRLLRTNLDESDVQPVKEQLAQAMFDHIPVGVGSKGVIPMNAKDLEEALEMGVDWSLREGYAWAEDKEHCEEYGRMLQADPNKVSPRAKKRGLPQLGTLGAGNHYAEIQVVDEIFNEYAAKKMGIDHKGQVCVMIHSGSRGLGHQVATDALVAMEKAMKRDKIIVNDRQLACARIASPEGQDYLKGMAAAGNYAWVNRSSMTFLTRQAFAKVFNTTPDDLDLHVIYDVSHNIAKVEQHVVDGKERTLLVHRKGSTRAFPPHHPLIAVDYQLTGQPVLIGGTMGTCSYVLTGTEQGMTETFGTTCHGAGRALSRAKSRRNLDFQDVLDKLADMGIAIRVASPKLVMEEAPESYKNVTDVVNTCHDAGISKKAIKLRPIAVIKG
chain 2: MEMEKEFEQIDKSGSWAAIYQDIRHEASDFPCRVAKLPKNKNRNRYRDVSPFDHSRIKLHQEDNDYINASLIKMEEAQRSYILTQGPLPNTCGHFWEMVWEQKSRGVVMLNRVMEKGSLKCAQYWPQKEEKEMIFEDTNLKLTLISEDIKSYYTVRQLELENLTTQETREILHFHYTTWPDFGVPESPASFLNFLFKVRESGSLSPEHGPVVVHSSAGIGRSGTFCLADTCLLLMDKRKDPSSVDIKKVLLEMRKFRMGLIQTADQLRFSYLAVIEGAKFIMGDSSVQDQWKELSHEDLEPPPEHIPPPPRPPKRILEPHNGKCREFFPNHQWVKEETQEDKDCPIKEEKGSPLNAAPYGIESMSQDTEVRSRVVGGSLRGAQAASPAKGEPSLPEKDEDHALSYWKPFLVNMCVATVLTAGAYLCYRFLFNSNT

Variants of: B1
Assay: co-immunoprecipitation (IP: PTP1B, immunoblot RtcB), band quantification
Conditions: with PTP1B-C215S (trapping mutant; pcDNA3.1/Zeo-PTP1B C215S); HEK cells, 1 μg RtcB-Flag plasmid and 1 μg PTP1B C215S plasmid; n = 3; parent: 100; read off a plot

Row | percent of parent | Variant
1 | 38 % WT | chain 1 Y306F Y316F Y475F
2 | 37 % WT | chain 1 Y306F Y316F

More lines, now with the values behind:

Row | Variant | percent of parent
3 | chain 1 Y316F | 75 % WT
4 | chain 1 Y306F | 100 % WT
5 | chain 1 Y475F | 55 % WT
